Data reported in patent US20220048991A1 (BIOND BIOLOGICS, published 2022).
Numbering of substitutions follows the chain as printed. Names and notes keep the numbering of the source.

B1: 15G8 (hybridoma-derived, murine) (antibody, V domains shown)
VH: DVQLQGSGPGLVKPSQSLSLTCSVTGYSITSGYYWNWIRQFPGNKLEWMGYISYDGSNNYNPSLKNRISITRDTSKNQFFLKLNSVTSEDTATYYCAHGYSYYYAMDCWGQGTSVTVSS
VL: DIQMTQTTSSLSASLGDRVTISCRTSQDISNYLNWYQQKPDGTVKLLISYTSRLHSGVPSRFSGSGSGTDYSLTISNLEQEDIATYFCQQGNTLPTFGSGTKLEIK
notes: also called 15G8 antibody
B2: chimeric 15G8 antibody (antibody, V domains shown)
VH: B1 VH
VL: B1 VL
notes: Chimeric form of murine 15G8
B3: humanized 15G8 VH1/Vk4 (antibody, IgG4, V domains shown)
VH: B1 VH with Q16E, S17T, N44K, S69T, T71S, F80S, S88A, E89A, C108A
VL: DIQMTQSPSSLSASVGDRVTITCRTSQDISNYLNWYQQKPGKAPKLLISYTSRLHSGVPSRFSGSGSGTDYTLTISSLQPEDFATYFCQQGNTLPTFGQGTKLEIK
notes: Humanized IgG4 (S228P, L235E), kappa; tested as supernatant of transiently transfected HEK EBNA cells
B4: humanized 15G8 VH3/Vk1 (antibody, IgG4, V domains shown)
VH: DVQLQGSGPGLVKPSETLSLTCSVTGYSITSGYYWNWIRQPPGKGLEWMGYISYDGSNNYNPSLKNRITISRDTSKNQFSLKLSSVTAADTATYYCAHGYSYYYAMDAWGQGTTVTVSS
VL: B3 VL with P8T, P44V, P80Q
notes: as for B3
B5: humanized 15G8 VH4/Vk3 (antibody, IgG4, V domains shown)
VH: B4 VH with D1Q, I68V
VL: B3 VL with P44V, F87Y
notes: as for B3
B6: humanized 15G8 VH2/Vk2 (antibody, IgG4, V domains shown)
VH: B4 VH with P41F, G45K
VL: B3 VL with P44V
notes: as for B3
B7: humanized 15G8 VH2/Vk1 (antibody, IgG4, V domains shown)
VH: B4 VH with P41F, G45K
VL: B3 VL with P8T, P44V, P80Q
notes: as for B3
B8: humanized 15G8 VH4/Vk1 (antibody, IgG4, V domains shown)
VH: B4 VH with D1Q, I68V
VL: B3 VL with P8T, P44V, P80Q
notes: as for B3
B9: humanized 15G8 VH5/Vk2 (antibody, IgG4, V domains shown)
VH: B4 VH with D1Q, S23T, M49I, I68V
VL: B3 VL with P44V
notes: as for B3
B10: humanized 15G8 VH5/Vk1 (antibody, IgG4, V domains shown)
VH: B4 VH with D1Q, S23T, M49I, I68V
VL: B3 VL with P8T, P44V, P80Q
notes: as for B3
B11: humanized 15G8 VH2/Vk4 (antibody, IgG4, V domains shown)
VH: B4 VH with P41F, G45K
VL: B3 VL
notes: as for B3
B12: humanized 15G8 VH1/Vk1 (antibody, IgG4, V domains shown)
VH: B4 VH with P41F, G45K, S84N, T114S
VL: B3 VL with P8T, P44V, P80Q
notes: as for B3
B13: humanized 15G8 VH3/Vk3 (antibody, IgG4, V domains shown)
VH: B4 VH
VL: B3 VL with P44V, F87Y
notes: as for B3
B14: humanized 15G8 VH1/Vk2 (antibody, IgG4, V domains shown)
VH: B4 VH with P41F, G45K, S84N, T114S
VL: B3 VL with P44V
notes: as for B3
B15: 17F2 (hybridoma-derived, murine) (antibody, V domains shown)
VH: QVQLQQSDAELVKPGASVKISCKVSGYTFTDHTIHWMKQRPEQGLEWIGYIYPRDGSTKYNEKFKGKATLTADKSSSTAYMQLNSLTSEDSAVYFCARTWDYFDYWGQGTTLTVSS
VL: DIVLTQSPASLAVSLGQRATISCRASESVDSYGNSFMHWYQQKPGQPPKLLIYRASNLESGIPARFSGSGSRTDFTLTINPVEADDVATYYCQQSNEDPYTFGGGTKLEIK
B16: 19E3 (hybridoma-derived, murine) (antibody, V domains shown)
VH: QVQLQQSGAELARPGASVKLSCKASGYTFTSYGISWVKQRTGQGLEWVGEIYPGSGNSYYNEKFKGKATLTADKSSSTAYMELRSLTSEDSAVYFCARSNDGYPDYWGQGTTLTVSS
VL: DIQMTQSSSYLSVSLGGRVTITCKASDHINNWLAWYQQKPGNAPRLLISGATSLETGVPSRFSGSGSGKDYTLSITSLQTEDVATYYCQQYWSTPWTFGGGTKLEIK

Tests used:
[1] = target: T1, recombinant ILT2 (human) (human, UniProt Q8NHL6 24-461); assay: binding ELISA, hILT2-Fc; positive control is GHI/75 by paragraph 244
T1 construct: also called recombinant ILT2 peptide; ILT2 protein
T1 sequence (Q8NHL6 24-461 limits assumed): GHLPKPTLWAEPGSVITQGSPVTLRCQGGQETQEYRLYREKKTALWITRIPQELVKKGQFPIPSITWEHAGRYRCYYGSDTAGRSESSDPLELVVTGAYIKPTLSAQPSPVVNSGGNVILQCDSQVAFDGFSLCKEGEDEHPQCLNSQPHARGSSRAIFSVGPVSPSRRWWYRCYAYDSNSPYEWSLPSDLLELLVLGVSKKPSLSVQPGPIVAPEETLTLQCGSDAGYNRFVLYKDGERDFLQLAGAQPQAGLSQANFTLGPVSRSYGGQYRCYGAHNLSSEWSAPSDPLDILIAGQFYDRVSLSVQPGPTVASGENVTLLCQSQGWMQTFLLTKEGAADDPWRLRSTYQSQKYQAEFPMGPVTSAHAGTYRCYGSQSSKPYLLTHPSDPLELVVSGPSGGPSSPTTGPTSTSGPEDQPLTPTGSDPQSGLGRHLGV

[2] = target: T2, PIRB (UniProt P97484 25-642, limits assumed); assay: binding ELISA, column PIRB; negative control
T2 sequence (looked up): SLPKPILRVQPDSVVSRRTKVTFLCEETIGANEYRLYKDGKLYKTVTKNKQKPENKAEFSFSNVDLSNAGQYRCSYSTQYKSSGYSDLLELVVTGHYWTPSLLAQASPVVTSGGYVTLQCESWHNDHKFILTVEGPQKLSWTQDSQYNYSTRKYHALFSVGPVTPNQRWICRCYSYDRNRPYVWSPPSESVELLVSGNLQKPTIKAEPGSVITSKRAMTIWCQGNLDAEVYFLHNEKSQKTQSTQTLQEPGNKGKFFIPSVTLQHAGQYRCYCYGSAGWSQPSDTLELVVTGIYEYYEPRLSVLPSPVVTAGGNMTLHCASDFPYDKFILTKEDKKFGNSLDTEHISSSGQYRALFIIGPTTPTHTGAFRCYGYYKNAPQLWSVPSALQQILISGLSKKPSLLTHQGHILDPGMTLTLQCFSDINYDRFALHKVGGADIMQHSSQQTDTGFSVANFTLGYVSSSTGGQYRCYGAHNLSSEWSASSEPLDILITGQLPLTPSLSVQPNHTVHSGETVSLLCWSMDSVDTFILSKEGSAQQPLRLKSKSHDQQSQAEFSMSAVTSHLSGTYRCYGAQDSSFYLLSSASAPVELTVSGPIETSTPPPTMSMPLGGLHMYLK

[3] = target: T1, recombinant ILT2 (human); assay: binding ELISA, hILT2-Fc; negative control
[4] = target: T3, ILT6 (UniProt Q8N6C8 24-439, limits assumed); assay: binding ELISA, column hILT6-His; negative control
T3 sequence (Q8N6C8 24-439 limits assumed): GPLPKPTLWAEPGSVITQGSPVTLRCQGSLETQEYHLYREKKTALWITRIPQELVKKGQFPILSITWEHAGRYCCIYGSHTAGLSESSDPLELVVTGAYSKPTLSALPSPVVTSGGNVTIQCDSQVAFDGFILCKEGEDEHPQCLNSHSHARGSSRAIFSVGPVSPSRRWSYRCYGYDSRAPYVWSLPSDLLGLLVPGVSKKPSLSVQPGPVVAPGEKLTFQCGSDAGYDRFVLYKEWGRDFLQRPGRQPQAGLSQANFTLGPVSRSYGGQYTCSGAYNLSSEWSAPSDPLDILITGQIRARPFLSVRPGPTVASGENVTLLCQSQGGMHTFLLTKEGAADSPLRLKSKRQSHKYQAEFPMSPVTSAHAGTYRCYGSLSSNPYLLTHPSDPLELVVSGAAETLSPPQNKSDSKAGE

[5] = target: T4, LILRA1 (UniProt O75019 17-461, limits assumed); assay: binding ELISA, column hLILRA1-His; negative control
T4 sequence (O75019 17-461 limits assumed): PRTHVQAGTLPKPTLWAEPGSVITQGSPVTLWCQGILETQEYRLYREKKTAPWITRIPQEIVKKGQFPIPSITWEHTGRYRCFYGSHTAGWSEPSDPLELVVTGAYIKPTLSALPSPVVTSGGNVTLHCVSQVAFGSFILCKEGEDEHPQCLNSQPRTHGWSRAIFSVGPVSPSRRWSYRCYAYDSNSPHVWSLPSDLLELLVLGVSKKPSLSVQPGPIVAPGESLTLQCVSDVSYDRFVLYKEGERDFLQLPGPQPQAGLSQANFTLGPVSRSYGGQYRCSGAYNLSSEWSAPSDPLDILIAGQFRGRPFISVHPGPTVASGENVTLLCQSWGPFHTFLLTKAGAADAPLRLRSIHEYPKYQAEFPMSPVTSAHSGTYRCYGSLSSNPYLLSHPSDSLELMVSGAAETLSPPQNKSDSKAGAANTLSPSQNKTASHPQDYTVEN

[6] = target: T2, PIRB; assay: binding ELISA, column PIRB
[7] = target: T1, recombinant ILT2 (human); assay: binding ELISA, hILT2-Fc
[8] = target: T3, ILT6; assay: binding ELISA, column hILT6-His
[9] = target: T4, LILRA1; assay: binding ELISA, column hLILRA1-His
[10] = target: T1, recombinant ILT2 (human); assay: SPR (Biacore T200); KD relative to Control (chimeric 15G8)
Procedure: (§1) During grafting of the 15G8 CDRs, five heavy chains and four kappa light chains were generated. These chains were designated VH1-5 and Vk1-4. By combining each heavy chain with each light chain twenty different resultant antibodies are possible. All twenty possible antibodies were transiently expressed in HEK EBNA cells, and the supernatants were tested for binding to recombinant ILT2 peptide using a Biacore T200. The chimeric 15G8 antibody was used as control.

[11] = target: T1, recombinant ILT2 (human); assay: SPR (Biacore T200), HEK EBNA supernatants on recombinant ILT2 peptide
Procedure: as §1

[12] = target: T5, biotinylated recombinant human ILT2-Fc (human, UniProt Q8NHL6 24-458, limits assumed, conjugated with biotin (sites not given)); assay: flow cytometry blocking assay: ILT2-biotin binding to cells expressing HLA-G [right panel]
T5 construct: Bought (Sino Biologics); the order of the parts is therefore uncertain; also called ILT2-biotin; biotinylated ILT2; not shown: Fc portion of human IgG1
T5 sequence (Q8NHL6 24-458 limits assumed): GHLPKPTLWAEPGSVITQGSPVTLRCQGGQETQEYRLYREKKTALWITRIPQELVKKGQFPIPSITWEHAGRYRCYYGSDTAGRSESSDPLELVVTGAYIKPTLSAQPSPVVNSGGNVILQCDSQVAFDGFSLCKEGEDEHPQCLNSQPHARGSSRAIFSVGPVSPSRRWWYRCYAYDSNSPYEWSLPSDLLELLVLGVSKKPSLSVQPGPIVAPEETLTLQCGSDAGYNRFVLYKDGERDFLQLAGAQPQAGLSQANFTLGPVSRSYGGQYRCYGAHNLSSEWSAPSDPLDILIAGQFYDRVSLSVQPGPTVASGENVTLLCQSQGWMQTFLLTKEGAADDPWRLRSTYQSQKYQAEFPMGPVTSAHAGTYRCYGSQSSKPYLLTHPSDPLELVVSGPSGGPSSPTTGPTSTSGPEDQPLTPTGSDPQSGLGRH
Procedure: Flow cytometry blocking assay—Recombinant human ILT2 protein fused with the Fc portion of human IgG1 at the N terminal was conjugated with biotin (Innova bioscience). A total of 5×10⁵ A375/HLA-G1 cells were incubated in a volume of 100 μL in the presence of anti-ILT2 clone #1 or isotype matched control mAb and ILT2-Fc conjugated with biotin (10 μg/mL) for 30 minutes at room temperature. After several washing steps, streptavidin-PE was added at a final concentration of 0.2 μg/mL and incubated for 30 min on ice followed by FACS analysis.
The ability of the generated anti-ILT2 antibodies to block the interaction between HLA-G and ILT2 was tested using four different assays. First, a blocking flow cytometry assay was performed. HLA-G transfected A375 cells were incubated with biotinylated ILT2 in the presence of the antibodies of the present disclosure and a positive control antibody. The commercially available anti-ILT2 antibody GHI/75 (BioLegend, Cat. No. 333704) was used as the positive control. The binding of ILT2-biotin to the cells was determined using Streptavidin-PE by flow cytometry analysis (FIG. 8A). The percent of blocking was determined by normalizing to a negative control (ILT2 binding in the presence of control IgG). […] The percentage of blocking was calculated at various concentrations of antibody (FIG. 8C).

Row | Molecule | Relative KD [10] | Kd [11] [nM] | koff [11] [s⁻¹] | kon [11] [M⁻¹ s⁻¹] | other results
1 | GHI/75 (commercial mouse anti-human ILT2 antibody, BioLegend Cat. No. 333704) |  |  |  |  | ELISA (OD) [1]: 2.45 OD
2 | Negative |  |  |  |  | ELISA (OD) [2]: 0.0575 OD; ELISA (OD) [3]: 0.05 OD; ELISA (OD) [4]: 0.071 OD; ELISA (OD) [5]: 0.13 OD
3 | B1 |  |  |  |  | ELISA (OD) [6]: 0.08 OD; binding result [6]: no binding; ELISA (OD) [7]: 1.11 OD; ELISA (OD) [8]: 0.07 OD; binding result [8]: no binding; ELISA (OD) [9]: 0.14 OD; binding result [9]: no binding
4 | B2 | 1 | 12.6 | 0.0102 | 808000 | IC50 (read off the curve) [12]: ~0.2 µg/mL
5 | B3 | 1.48 | 18.7 | 0.00854 | 457000 | 
6 | B4 | 0.68 | 8.52 | 0.00681 | 799000 | 
7 | B5 | 0.75 | 9.51 | 0.00843 | 886000 | 
8 | B6 | 0.7 | 8.79 | 0.0066 | 752000 | 
9 | B7 | 0.76 | 9.58 | 0.00728 | 760000 | 
10 | B8 | 0.69 | 8.66 | 0.00792 | 915000 | 
11 | B9 | 0.6 | 7.57 | 0.00954 | 1.26e+06 | 
12 | B10 | 0.68 | 8.55 | 0.00994 | 1.16e+06 | 
13 | B11 | 1.13 | 14.2 | 0.00789 | 554000 | 
14 | B12 | 0.7 | 8.77 | 0.00931 | 1.06e+06 | 
15 | B13 | 0.72 | 9.03 | 0.00611 | 677000 | 
16 | B14 | 0.7 | 8.82 | 0.00678 | 769000 | 
17 | B15 |  |  |  |  | ELISA (OD) [6]: 0.06 OD; binding result [6]: no binding; ELISA (OD) [7]: 1.89 OD; ELISA (OD) [8]: 0.06 OD; binding result [8]: no binding; ELISA (OD) [9]: 0.08 OD; binding result [9]: no binding
18 | B16 |  |  |  |  | ELISA (OD) [6]: 0.14 OD; binding result [6]: no binding; ELISA (OD) [7]: 2.61 OD; ELISA (OD) [8]: 0.13 OD; binding result [8]: no binding; ELISA (OD) [9]: 0.11 OD; binding result [9]: no binding
